Experimental data published in patent US20190358242A1, “COMPOSITIONS, KITS, AND METHODS TO INDUCE ACQUIRED CYTORESISTANCE USING STRESS PROTEIN INDUCERS” (FRED HUTCHINSON CANCER RESEARCH CENTER, priority 2017, published 2019).

Columns and labels:
[1] = system: ferritin heavy chain; assay: Kidney ferritin heavy chain expression (Western blotting); assay type: in vivo, mice; details: 18 hrs following 1 umole SnPP, 1 mg FeS or combined
Procedure: FIG. 32. Ferritin heavy chain expression (as determined by Western blotting) in kidneys 18 hrs following 1 umole tin protoporphyrin (SnPP), 1 mg Fe sucrose (FeS) or combined SnPP+FeS treatment.

[2] = system: HO-1 protein; assay: Renal cortical HO-1 protein (ELISA) after FeS, SnPP, B12; assay type: in vivo, CD-1 mice
Procedure: Effects of FeS, SnPP, and B12 on renal cortical induction of heme oxygenase 1(HO-1). The following experiments assessed the effects of FeS, SnPP, and B12 on the possible induction of the cytoprotective protein HO-1. To this end, mice were injected with each of these agents, as noted above. Either 4 or 18 hrs later, they were anesthetized and the kidneys were removed through a midline abdominal incision. The renal cortices were dissected on ice and then extracted for protein and mRNA. The samples were then assayed for HO-1 protein by ELISA, and HO-1 mRNA by RT-PCR, factored by GAPDH levels. Five normal mice provided control values.

[3] = system: maleate model of AKI; assay: Maleate model of AKI (800 mg/Kg), FeS/SnPP and FeS/B12; assay type: in vivo, CD-1 mice; details: IV 18 hrs before 800 mg/Kg maleate; 18 hrs post maleate; 1 mg FeS, 1 μmole SnPP or B12
From the text: Effects of Fe sucrose (FeS)/tin protoporphyrin (SnPP) on AKI severity. Maleate model of AKI. When injected into rodents, maleate undergoes relatively selective proximal tubule cell uptake via organic anion transporters. Once intracellular accumulation occurs, maleate is a preferred substrate for succinyl-CoA:3-oxoacid CoA transferase. […] Ample levels of CoA are essential for fatty acid “activation”, allowing for their subsequent metabolism through the Krebs cycle, yielding ATP. In the absence of this process, proximal tubule ATP depletion and cell injury result. Additionally, maleate conjugates the sulfhydryl group of glutathione (GSH), culminating in GSH depletion and potential oxidant tubular stress.
The following experiment tested whether FeS, SnPP or combined FeS+SnPP can mitigate this form of acute kidney injury (AKI). Twenty seven mice were subjected to 200 μL IV tail injections of one of the following: 1) vehicle (phosphate buffered saline, PBS; n, 10); 2) 1 mg FeS (American Regent (Shirley, N.Y.; n, 3); 3) 1 μmole SnPP (Frontier Scientific, Logan, Utah; n 7), or FeS+SnPP, n, 7). […] The severity of kidney injury was assessed by determining plasma blood urea nitrogen (BUN) and plasma creatinine (PCr) concentrations.
Maleate model of AKI. […] The severity of AKI was determined 18 hrs post maleate injection by terminal BUN and PCr assessments.

[4] = system: haptoglobin protein; assay: Cardiac haptoglobin protein (ELISA); assay type: in vivo, CD-1 mice
Procedure: (§1) Thirty-two mice were divided into 4 equal groups: (1) control mice; (2) mice treated with 1 mg of N-Mgb injection (as a bolus through the tail vein); (3) mice treated with […] of SnPP (via tail vein); and (4) mice treated with combined N-Mgb 1 SnPP. After either 4 hours (n=16) or 18 hours (n=16), the mice were deeply anesthetized with pentobarbital (50 mg/kg), the abdomen was opened through a midline abdominal incision, and the kidneys were removed. To determine potential effects on extrarenal organs, a liver lobe and the heart were also removed. The tissues were iced and then extracted for protein and RNA (RNeasy Plus Mini; Qiagen, Valencia, Calif.) and subjected to enzyme linked immunosorbent assay (ELISA) and reverse transcriptase polymerase chain reaction (RT-PCR) for HO-1, haptoglobin, and IL-10 protein and messenger RNAs (mRNAs). Zager et al. J Am Soc Nephrol 2014; 25:998-1012; Zager et al. Am J Physiol 2012; 303:F139-48. As an assessment of renal function, control mice and the 18 hour after N-Mgb+SnPP-treated mice had blood urea nitrogen (BUN) and plasma creatinine levels measured. Additionally, transverse 10% formalin fixed kidney sections ([…]) were cut and stained with hematoxylin and eosin (H&E) and periodic acid Schiff (PAS) to further assess potential injury.

[5] = system: IL-10 mRNA; assay: Liver IL-10 mRNA (RT-PCR); assay type: in vivo, CD-1 mice
Procedure: as §1

[6] = system: HK-2 cells; assay: HK-2 cell injury by MTT assay; assay type: cell-based; details: 10 mg/ml, equimolar Na nitrite, 18 hr incubation
Procedure: HK-2 cells (a proximal tubule cell line derived from normal human kidney) were incubated in keratinocyte serum free medium either under normal (control) conditions or in the presence of 10 mg/mL horse skeletal muscle myoglobin or nitrited myoglobin (produced by equimolar Na nitrite addition to 10 mg/ml myoglobin). After 18 hr incubations, the severity of cell injury (% cell death) was assessed by MTT assay. Myoglobin induced 40% cell death (40% decrease in MTT cell uptake), compared to control incubated cells. Nitrite binding to myoglobin reduced cell death by 75%. Thus, nitrite binding is able to reduce myoglobin's cytotoxic effects.

[7] = system: HO-1 mRNA; assay: Cardiac HO-1 mRNA (RT-PCR); assay type: in vivo, CD-1 mice
Procedure: as §1

[8] = system: haptoglobin mRNA; assay: Liver haptoglobin mRNA (RT-PCR); assay type: in vivo, CD-1 mice
Procedure: as §1

[9] = system: haptoglobin protein; assay: Liver haptoglobin protein (ELISA); assay type: in vivo, CD-1 mice; design: unit not given beside the values
Procedure: as §1

[10] = system: HO-1 protein; assay: Liver HO-1 protein (ELISA); assay type: in vivo, CD-1 mice; design: unit not given beside the values
Procedure: as §1

[11] = system: IL-10 protein; assay: Cardiac IL-10 protein (ELISA); assay type: in vivo, CD-1 mice
Procedure: as §1

[12] = system: HO-1 protein; assay: Kidney HO-1 protein (ELISA); assay type: in vivo, CD-1 mice
Procedure: as §1

[13] = system: HO-1 mRNA; assay: Kidney HO-1 mRNA (RT-PCR); assay type: in vivo, CD-1 mice
Procedure: as §1

[14] = system: haptoglobin protein; assay: Kidney haptoglobin protein (ELISA); assay type: in vivo, CD-1 mice
Procedure: as §1

[15] = system: HO-1 protein; assay: Cardiac HO-1 protein (ELISA); assay type: in vivo, CD-1 mice; details: 4 h after IV injection
Procedure: as §1

[16] = system: IL-10 mRNA; assay: Kidney IL-10 mRNA (RT-PCR); assay type: in vivo, CD-1 mice
Procedure: as §1

[17] = Serum creatinine after 2 hr subcutaneous infusion of nitrited myoglobin + SnPP; assay type: in vivo, mice; details: 2 hr SC infusion 1, 3, 6, 12, or 25 mg/Kg + 1 μmole SnPP; 18 hrs later
Procedure: Mice were subjected to a 2 hr subcutaneous infusion of 1, 3, 6, 12, or 25 mg/Kg of nitrited myoglobin (holding SnPP at a constant dose of 1 μmole). Eighteen hrs later, potential renal injury was assessed by measuring serum creatinine concentrations.
An obvious concern by applying this prophylactic strategy to patients is potential renal and/or extrarenal toxicities. […] Furthermore, it was previously documented in a cell culture system that nitrite addition markedly reduces myoglobin's cytotoxic effects by 75% (unpublished data, 2014). To assess the potential in vivo margin of safety for N-Mgb+SnPP (see Supplemental FIGS.), the maximal amount of N-Mgb that could be given to mice before nephrotoxicity was observed was tested. Up to 25 times the employed N-Mgb dose (with a constant SnPP dose) could be administered (over 2 hours) without induction of nephrotoxicity (normal BUN and creatinine, 18 hours later).

[18] = system: IL-10 protein; assay: Liver IL-10 protein (ELISA); assay type: in vivo, CD-1 mice
Procedure: as §1

[19] = system: IL-10 protein; assay: Kidney IL-10 protein (ELISA); assay type: in vivo, CD-1 mice
Procedure: as §1

[20] = system: haptoglobin mRNA; assay: Cardiac haptoglobin mRNA (RT-PCR); assay type: in vivo, CD-1 mice
Procedure: as §1

[21] = system: IL-10 mRNA; assay: Cardiac IL-10 mRNA (RT-PCR); assay type: in vivo, CD-1 mice
Procedure: as §1

[22] = system: HO-1 mRNA; assay: Liver HO-1 mRNA (RT-PCR); assay type: in vivo, CD-1 mice
Procedure: as §1

[23] = system: glycerol model of rhabdomyolysis-induced AKI; assay: Glycerol model of rhabdomyolysis-induced AKI; assay type: in vivo, CD-1 mice; details: IV pretreatment 18 h before glycerol; 18 hours after glycerol
Procedure: Assessments of cytoresistance. Glycerol model of rhabdomyolysis-induced AKI. Twenty mice were divided into 4 equal groups (controls, mice treated with N-Mgb, SnPP, and mice treated with N-Mgb+SnPP tail vein injections) as described previously. 18 hours later, the mice were briefly anesthetized with isoflurane and immediately injected with 9 mL/kg of 50% glycerol, administered in equally divided doses into each hind limb. At 18 hours after glycerol injection, the mice were anesthetized with pentobarbital, the abdomen was opened, a blood sample for BUN and creatinine assessments was obtained from the vena cava, and the kidneys were resected. The control post-glycerol group and the N-Mgb+SnPP-pretreated glycerol group had kidney sections stained with H&E.
To assess whether the previously determined plasma and kidney HO-1 and haptoglobin levels correlated with degrees of cytoresistance, additional mice were injected with 0, 2.5, or 5 mg of N-Mgb […] of SnPP (n=3 mice per group). Eighteen hours later, all mice were subjected to the glycerol AKI model as described previously. Severities of AKI were determined 18 hours after glycerol injection by BUN and plasma creatinine analyses.
Calculations and statistics. All values are given as the mean […] standard error of the mean. Statistical comparisons were made by unpaired Student's t test. […]

[24] = system: haptoglobin mRNA; assay: Kidney haptoglobin mRNA (RT-PCR); assay type: in vivo, CD-1 mice
Procedure: as §1

[25] = 4 h after IV injection, N-Mgb 1 mg, SnPP 1 mmol [sic]

Molecule: iron sucrose [FeS]
- Ferritin heavy chain protein levels in kidney [1]: strong ferritin inducer
- HO-1 protein increases (FIG. 21) ([2]; 4 hrs and 18 hrs after IV injection): marked HO-1 protein increases within 4 hrs and persists for 18 hrs
- Renal cortical HO-1 protein levels ([2]; 18 hr time point): remained elevated at the 18 hr time point, particularly in the case of FeS administration
- Severity of maleate-induced AKI (BUN/PCr), in words [3]: Neither SnPP alone nor FeS alone significantly altered the severity of renal injury

B1: N-Mgb: horse myoglobin converted into a nitrited form by addition of equimolar sodium nitrite (protein, UniProt P68082 2-154, looked up)
Myoglobin: GLSDGEWQQVLNVWGKVEADIAGHGQEVLIRLFTGHPETLEKFDKFKHLKTEAEMKASEDLKKHGTVVLTALGGILKKKGHHEAELKPLAQSHATKHKIPIKYLEFISDAIIHVLHSKHPGDFGADAQGAMTKALELFRNDIAAKYKELGFQG
modifications: nitrite-modified
notes: horse myoglobin converted into a nitrited form by addition of equimolar sodium nitrite
- Cardiac protein Haptoglobin ([4]; 4 h after IV injection): 40.4 ± 8.6
- Cardiac protein Haptoglobin ([4]; 18 h after IV injection): 249.6 ± 15.0
- Liver mRNA IL-10 ([5]; 4 h after IV injection): 0.67 ± 0.46
- Liver mRNA IL-10 ([5]; 18 h after IV injection): 0.06 ± 0.02
- Reduction of myoglobin-induced cell death by nitrite binding [6]: 75%
- Cardiac mRNA HO-1 ([7]; 4 h after IV injection): 0.09 ± 0.01
- Cardiac mRNA HO-1 ([7]; 18 h after IV injection): 0.08 ± 0.01
- Liver mRNA Haptoglobin ([8]; 4 h after IV injection): 0.98 ± 0.1
- Liver mRNA Haptoglobin ([8]; 18 h after IV injection): 0.91 ± 0.07
- Liver protein Haptoglobin ([9]; 4 h after IV injection): 359.5 ± 39.6
- Liver protein Haptoglobin ([9]; 18 h after IV injection): 358.8 ± 32.8
- Liver protein HO-1 ([10]; 4 h after IV injection): 17 ± 2
- Liver protein HO-1 ([10]; 18 h after IV injection): 14.9 ± 0.3
- Cardiac Protein IL-10 ([11]; 4 h after IV injection): 21 ± 12
- Cardiac protein IL-10 (L-10 [sic]) ([11]; 18 h after IV injection): 14.5 ± 10^
- Renal HO-1 protein increase, in words ([12]; 18-hour time point, agent alone): only relatively small HO-1 protein increases
- Kidney HO-1 protein [12, 25]: 36.1 ± 2.9
- Kidney protein HO-1 ([12]; 18 h after IV injection): 30 ± 6
- Kidney mRNA HO-1 [13, 25]: 3.38 ± 0.38
- Renal HO-1 mRNA increase, in words ([13]; 4 hour, agent alone): only modest increases
- Kidney mRNA cortex HO-1 ([13]; 18 h after IV injection): 0.58 ± 0.18
- Renal haptoglobin protein levels, in words ([14]; 18-hour time point, vs combination): comparably increased
- Kidney Haptoglobin protein [14, 25]: 17.6 ± 1^
- Kidney protein Haptoglobin ([14]; 18 h after IV injection): 183.8 ± 20.4
- Cardiac protein HO-1 [15]: 1.64 ± 0.19
- Impact on renal IL-10 mRNA levels, in words ([16]; 4-hour time point, agent alone): either minimal or no impact
- Kidney mRNA IL-10 [16, 25]: 1.45 ± 0.6
- Kidney mRNA cortex IL-10 ([16]; 18 h after IV injection): 0.43 ± 0.10
- Serum creatinine concentration change [17]: No significant increase
- Liver protein IL-10 ([18]; 4 h after IV injection): 286 ± 32
- Liver protein IL-10 ([18]; 18 h after IV injection): 5988 ± 549
- Kidney IL-10 protein [19, 25]: 265 ± 54
- Kidney protein IL-10 ([19]; 18 h after IV injection): 292 ± 54
- Renal IL-10 protein increase, in words ([19]; 18 hours, agent alone): absence of IL-10 protein increases
- Cardiac mRNA Haptoglobin ([20]; 4 h after IV injection): 0.75 ± 0.10
- Cardiac mRNA Haptoglobin ([20]; 18 h after IV injection): 0.53 ± 0.21
- Cardiac mRNA IL-10 ([21]; 4 h after IV injection): 0.86 ± 0.11
- Cardiac mRNA IL-10 ([21]; 18 h after IV injection): 0.67 ± 0.10
- Liver mRNA HO-1 ([22]; 4 h after IV injection): 1.83 ± 0.33
- Liver mRNA HO-1 ([22]; 18 h after IV injection): 0.82 ± 0.07
- Protection against glycerol-induced AKI judged by BUN/creatinine levels [23]: modest protection
- Kidney mRNA Haptoglobin [24, 25]: 1.94 ± 0.31
- Kidney mRNA cortex Haptoglobin ([24]; 18 h after IV injection): 0.24 ± 0.04
